According to US20200239541A1 (XYPHOS BIOSCIENCES, published 2020):

Tests used:
Test in all cases: ELISA, ligand-Fc coated, biotinylated NKG2D titrated
[1] = target: T1, Y152A mutant NKG2D ectodomain (His-avitag, biotinylated) (human)
T1 construct: also called Y152A non-natural NKG2D receptor; not shown: N-terminal His-avitag
T1 chain: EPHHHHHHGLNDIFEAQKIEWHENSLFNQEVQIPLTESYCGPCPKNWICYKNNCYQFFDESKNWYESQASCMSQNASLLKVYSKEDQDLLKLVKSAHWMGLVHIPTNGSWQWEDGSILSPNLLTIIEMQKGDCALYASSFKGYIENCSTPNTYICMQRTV
Description: (§1) In addition to purifying the above 3 Fc-fusion proteins NKG2D ligand-Fc fusion proteins MICB-Fc, ULBP1-Fc, ULBP2-Fc, ULBP3-Fc, and ULBP4-Fc were purchased from R&D Systems, Inc. (Minneapolis, Minn.). Binding of the different α1-α2 domain-Fc fusions to both natural and non-natural NKG2D ectodomain proteins was analyzed using a plate-based ELISA method. All of the natural and non-natural α1-α2 domain-Fc fusions were coated overnight at 4° C. onto separate wells of Maxisorp 96 well plates using a coating concentration of 2 μg/ml in phosphate-buffered saline (PBS). The plates were washed 3-times in PBS/0.05% Tween20 at 20-22° C., and blocked with 0.5% bovine serum albumin for 2 hours. The biotinylated natural and non-natural NKG2D receptor proteins were titrated against the plate-bound NKG2D ligands for 2 hours at 20-22° C., washed 3 times with PBS/0.05% Tween20 at 20-22° C., and the bound NKG2D proteins subsequently detected using a streptavidin-HRP secondary detection step and developed with 1-Step Ultra TMB Elisa.

[2] = target: T2, double Y152A plus Y199A mutant NKG2D ectodomain (His-avitag, biotinylated) (human)
T2 construct: not shown: N-terminal His-avitag
T2 chain: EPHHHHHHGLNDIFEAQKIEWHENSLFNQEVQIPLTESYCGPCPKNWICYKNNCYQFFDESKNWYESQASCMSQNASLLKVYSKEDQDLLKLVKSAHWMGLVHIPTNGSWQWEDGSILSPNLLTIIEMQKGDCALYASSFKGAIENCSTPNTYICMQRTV
Description: as §1

[3] = target: T3, Y199A mutant NKG2D ectodomain (His-avitag, biotinylated) (human)
T3 construct: not shown: N-terminal His-avitag
T3 chain: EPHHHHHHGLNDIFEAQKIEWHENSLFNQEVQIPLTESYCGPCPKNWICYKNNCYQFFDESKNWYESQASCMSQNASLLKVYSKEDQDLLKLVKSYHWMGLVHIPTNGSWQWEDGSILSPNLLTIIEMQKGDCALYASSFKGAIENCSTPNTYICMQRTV
Description: as §1

Measured: binding result

B1: MICA-Fc (α1-α2-α3-Fc fusion, made in 293 cells) (Fc fusion)
chain: EPHSLRYNLTVLSWDGSVQSGFLTEVHLDGQPFLRCDRQKCRAKPQGQWAEDVLGNKTWDRETRDLTGNGKDLRMTLAHIKDQKEGLHSLQEIRVCEIHEDNSTRSSQHFYYDGELFLSQNLETKEWTMPQSSRAQTLAMNVRNFLKEDAMKTKTHYHAMHADCLQELRRYLKSGVVLRRTVPPMVNVTRSEASEGNITVTCRASGFYPWNITLSWRQDGVSLSHDTQQWGDVLPDGNGTYQTWVATRISQGEEQRFTCYMEHSGNHSTHPVPSGKIEGRMDPKSCDKTHTCPPCPAPELLGGPSVFLFPPKPKDTLMISRTPEVTCVVVDVSHEDPEVKFNWYVDGVEVHNAKTKPREEQYNSTYRVVSVLTVLHQDWLNGKEYKCKVSNKALPAPIEKTISKAKGQPREPQVYTLPPSRDELTKNQVSLTCLVKGF
no binding: all assays above
